The target in test [1] is survival motor neuron protein (SMN), endogenous human (human (endogenous in human fibroblasts)) (UniProt Q16637). The test can be described thus: co-IP.
Test [2] has as its target zinc finger protein ZPR1, endogenous human (human (endogenous in HeLa and human fibroblasts)) (UniProt O75312). Briefly: co-IP.

Sequence of survival motor neuron protein (SMN), endogenous human (human (endogenous in human fibroblasts)) (Q16637 whole entry): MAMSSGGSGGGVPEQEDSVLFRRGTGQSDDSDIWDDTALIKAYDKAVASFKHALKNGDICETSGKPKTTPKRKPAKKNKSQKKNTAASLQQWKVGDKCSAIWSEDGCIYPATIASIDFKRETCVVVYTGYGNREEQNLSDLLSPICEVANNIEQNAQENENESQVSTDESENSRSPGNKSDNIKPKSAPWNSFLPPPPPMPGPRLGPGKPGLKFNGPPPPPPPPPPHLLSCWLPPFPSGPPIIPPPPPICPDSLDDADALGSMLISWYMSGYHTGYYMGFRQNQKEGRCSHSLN
Sequence of zinc finger protein ZPR1, endogenous human (human (endogenous in HeLa and human fibroblasts)) (O75312 whole entry): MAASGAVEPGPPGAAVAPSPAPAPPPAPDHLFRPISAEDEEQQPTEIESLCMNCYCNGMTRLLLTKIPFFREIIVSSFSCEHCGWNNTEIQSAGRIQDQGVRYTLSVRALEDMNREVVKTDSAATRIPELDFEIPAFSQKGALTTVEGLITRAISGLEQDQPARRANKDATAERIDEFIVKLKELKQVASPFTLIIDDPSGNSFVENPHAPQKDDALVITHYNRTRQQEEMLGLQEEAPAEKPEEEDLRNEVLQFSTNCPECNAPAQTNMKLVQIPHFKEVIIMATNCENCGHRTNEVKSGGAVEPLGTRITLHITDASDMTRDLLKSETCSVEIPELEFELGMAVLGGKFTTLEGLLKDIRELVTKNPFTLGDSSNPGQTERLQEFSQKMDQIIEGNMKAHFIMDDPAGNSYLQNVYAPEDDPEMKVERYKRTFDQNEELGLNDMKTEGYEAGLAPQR

Regarding “senataxin (SETX), endogenous human, Q7Z333 1-2677”, the co-IP level with SMN in SMA cells, % of normal cells in test [1] is 25.8%. The same substance showed a co-IP level with ZPR1 in SMA cells, % of normal cells in test [2] of 44.8%.
